Laboratory results as given in paper PMC3062207.

Legend:
[1] = biological target: YU2gp140 (cleavage-deficient, trimeric HIV-1 Env gp140 with T4 fibritin trimerization motif) (HIV-1 isolate YU2 | bacteriophage T4); test: SEC
[2] = biological target: YU2gp140:gpD fusion protein (HIV-1 isolate YU2 | bacteriophage T4 | bacteriophage lambda); test: SEC

Row | Substance | stoichiometry N [1] | stoichiometry N [2]
1 | YU2gp140 (cleavage-deficient, trimeric HIV-1 Env gp140 with T4 fibritin trimerization motif) | 3 | 
2 | YU2gp140:gpD fusion protein |  | 3
